# Measured values taken from patent US7186695.
# Molecular target: 70 kDa N-terminal fragment of fibronectin
protein,measurement,value
Recombinant human thioredoxin produced in E. coli (protein) MVKQIESKTAFQEALDAAGDKLVVVDFSATWCGPCKMIKPFFHSLSEKYSNVIFLEVDVDDCQDVASECEVKCMPTFQFFKKGQKVGEFSGANKEKLEATINELV,"thioredoxin-mediated reduction of the fibronectin fragment (free thiols labelled with MPB, SDS-PAGE, streptavidin peroxidase blot)",thioredoxin reduced one or more protein disulfide bonds in the 70 kDa N-terminal fragment of fibronectin
